Target: GFP (wild-type green fluorescent protein) (Aequorea victoria, UniProt P42212 P42212:1-238)
Assay: filter; higher affinity than G16
Conditions: tags: His-tag (His-tagged GFP used on Ni beads in selection)

Binder	binding result
AP2 (ssRNA) RNA: GGGAGCACGAUUCCAUGCAAUUGUCGAGUUGUUAGCAGCAGCUUGCAUAUUGAGUCGUGGCGAAUUGGGUGGGGAAAGUCCUAAAAAGAGGGCCACCACAGAGGUUUGUACCCAUACUACAAGCUUCUGGACUCGGU	binds
AP4 (ssRNA) RNA: GGGAGCACGAUUCCAUGAUUCUCGUAUCAAGGAAGGGUUAUGAGAUUUAGGUAAACGUGGCGAAUUGGGUGGGGAAAGUCCUAAAAAGAGGGCCACCACAGAGGCUUGUAAUCGAUGUUACUAUAGAGGGACACGACUACAAGCUUCUGGACUCGGU	binds
AP6 (ssRNA) RNA: GGGAGCACGAUUCCAUUGGAUGCCACCGCGACUACGGUUAGUAGGCAUUCUGAGUCGUGGCGAAUUGGGUGGGGAAAGUCCUGAAAAGAGGGCCACCACAGAGGCUCAAACUGGACGUUAAUGACGUUUCGGUUCAGUACAAGCUUCUGGACUCGGU	binds

— patent publication US8445655, “Functional nucleic acid ligands to fluorescent proteins” (Cornell Research Foundation, Inc.)
